# Experimental data from article PMC6079076, “Structure of the mouse TRPC4 ion channel” (Nature Communications, 2018).
# B1: mouse TRPC4 (residues a.a. 1–758, excluding a.a. 759–974) (domain or fragment, UniProt Q9QUQ5 1-758, looked up)
# chain: MAQFYYKRNVNAPYRDRIPLRIVRAESELSPSEKAYLNAVEKGDYASVKKSLEEAEIYFKININCIDPLGRTALLIAIENENLELIELLLSFNVYVGDALLHAIRKEVVGAVELLLNHKKPSGEKQVPPILLDKQFSEFTPDITPIILAAHTNNYEIIKLLVQKGVSVPRPHEVRCNCVECVSSSDVDSLRHSRSRLNIYKALASPSLIALSSEDPFLTAFQLSWELQELSKVENEFKSEYEELSRQCKQFAKDLLDQTRSSRELEIILNYRDDNSLIEEQSGNDLARLKLAIKYRQKEFVAQPNCQQLLASRWYDEFPGWRRRHWAVKMVTCFIIGLLFPVFSVCYLIAPKSPLGLFIRKPFIKFICHTASYLTFLFLLLLASQHIDRSDLNRQGPPPTIVEWMILPWVLGFIWGEIKQMWDGGLQDYIHDWWNLMDFVMNSLYLATISLKIVAFVKYSALNPRESWDMWHPTLVAEALFAIANIFSSLRLISLFTANSHLGPLQISLGRMLLDILKFLFIYCLVLLAFANGLNQLYFYYEETKGLSCKGIRCEKQNNAFSTLFETLQSLFWSIFGLINLYVTNVKAQHEFTEFVGATMFGTYNVISLVVLLNMLIAMMNNSYQLIADHADIEWKFARTKLWMSYFEEGGTLPTPFNVIPSPKSLWYLVKWIWTHLCKKKMRRKPESFGTIGRRAADNLRRHHQYQEVMRNLVKRYVAAMIREAKTEEGLTEENVKELKQDISSFRFEVLGLLRGSK
# notes: mouse TRPC4, a.a; 1-758 of 974 (a.a. 759-974 left out); MBP tag removed with PreScission protease; also called mTRPC4; truncated TRPC4; source: HEK293S GnTI- cells, BacMam baculovirus, purified (amylose resin, Superose 6); not shown: MBP, N-terminal, cleaved
# Biological target: the molecule itself
# Test: cryo-EM structure; single-particle cryo-EM of purified TRPC4 in digitonin, 30 mM HEPES, 150 mM NaCl, 1 mM DTT, pH 7.5; apo state; C4 symmetry imposed; 3.3 Å
protein,measurement,value
B1,stoichiometry N,4
